Consider one molecule from article PMC9995077 (Science Advances, 2023).

One assay deals with Ino80-K929R-FLAG (S. cerevisiae, UniProt P53115 1-1489, K929R). Briefly: co-IP.
In assay [1] the target is Ino80-FLAG (endogenously expressed FLAG-tagged Ino80) (S. cerevisiae (endogenous in yeast …, UniProt P53115 1-1489)). Briefly: co-IP.
Ino80-FLAG (endogenously expressed FLAG-tagged Ino80) (S. cerevisiae, sequence (P53115 whole entry): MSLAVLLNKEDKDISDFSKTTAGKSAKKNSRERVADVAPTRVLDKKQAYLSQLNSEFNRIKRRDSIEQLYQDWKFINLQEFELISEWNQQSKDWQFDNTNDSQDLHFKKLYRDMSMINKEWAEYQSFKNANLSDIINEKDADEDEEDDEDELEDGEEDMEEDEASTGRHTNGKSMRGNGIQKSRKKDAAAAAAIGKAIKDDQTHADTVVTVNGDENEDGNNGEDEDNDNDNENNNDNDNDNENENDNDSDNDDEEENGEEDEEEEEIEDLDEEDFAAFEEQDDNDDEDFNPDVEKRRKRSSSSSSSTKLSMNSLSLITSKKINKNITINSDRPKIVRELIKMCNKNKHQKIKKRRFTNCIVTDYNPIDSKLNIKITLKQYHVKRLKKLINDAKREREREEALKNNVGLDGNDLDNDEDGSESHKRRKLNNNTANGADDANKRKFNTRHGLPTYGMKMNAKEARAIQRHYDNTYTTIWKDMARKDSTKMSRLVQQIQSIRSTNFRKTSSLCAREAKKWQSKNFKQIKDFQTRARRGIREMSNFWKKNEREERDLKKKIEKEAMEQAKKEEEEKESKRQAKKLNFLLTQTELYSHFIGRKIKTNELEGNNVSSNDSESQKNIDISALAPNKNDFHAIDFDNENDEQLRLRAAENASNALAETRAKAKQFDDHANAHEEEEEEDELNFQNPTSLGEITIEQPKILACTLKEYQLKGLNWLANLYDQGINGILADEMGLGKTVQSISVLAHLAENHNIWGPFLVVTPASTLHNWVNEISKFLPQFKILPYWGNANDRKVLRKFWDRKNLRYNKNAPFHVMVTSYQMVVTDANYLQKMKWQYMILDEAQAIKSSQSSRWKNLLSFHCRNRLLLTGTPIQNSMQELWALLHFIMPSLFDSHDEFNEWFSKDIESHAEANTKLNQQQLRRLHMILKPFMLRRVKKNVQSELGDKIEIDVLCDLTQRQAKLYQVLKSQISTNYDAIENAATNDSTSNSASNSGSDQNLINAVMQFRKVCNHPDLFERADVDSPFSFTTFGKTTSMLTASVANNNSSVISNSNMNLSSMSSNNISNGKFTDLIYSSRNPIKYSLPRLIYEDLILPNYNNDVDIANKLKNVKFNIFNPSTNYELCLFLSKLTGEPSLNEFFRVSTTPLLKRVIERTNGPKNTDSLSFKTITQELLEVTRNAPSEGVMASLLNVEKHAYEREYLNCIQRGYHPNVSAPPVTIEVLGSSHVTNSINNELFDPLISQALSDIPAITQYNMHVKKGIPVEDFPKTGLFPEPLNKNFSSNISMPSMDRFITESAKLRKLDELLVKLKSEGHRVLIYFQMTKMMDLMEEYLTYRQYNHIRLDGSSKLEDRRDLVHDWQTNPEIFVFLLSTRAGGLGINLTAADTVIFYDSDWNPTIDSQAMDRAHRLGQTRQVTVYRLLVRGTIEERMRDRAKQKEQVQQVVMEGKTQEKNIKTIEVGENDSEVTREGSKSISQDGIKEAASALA

Ino80-K929R-FLAG, sequence (P53115 whole entry K929R): as the sequence (P53115 whole entry) above, with K929R counted along it

B1: Atg11-CBP (tandem affinity-purified Atg11) (natural protein)
chain: MADADEYSTAPTQQEITPLQTTATIINAISGECITTNVDFFVSLDKFKQFIARKWKIPPDQLLILLPYGNKLKPSMFKELLINRSFTLNDFYVYDRRLFSLVSKPTPTNLLTSKDSNPMNSPNSNDLTETLEYLIKNSHISQYQGSDTIMIKPMPSPLEDADVDLSRLNYHSVTSLLTTNLGWLSALEIDVHYFKSLIPDIIAHIKRIFDGLTVCSQYLKLYCFDVESLYNSNVQFLNQLVDNGMTSKWEKCFNDTLSKLTALEGDSLQKFINIESLLENEKSVKILNHSINGKLNKIKREIDENASFRDIITVNIDRLRQMFTPNESKFELEDQMAESFEVLVSEMRTRSRNVLDKEEEEFNSQEFLKSMNVMLEKDKKESVKTLFTISQALYSQIGELIDLKKSLQKHAVAILGNIAFTQMEILGIKRLLLNECNKDLELYKKYEVEFAQVEDLPLIYGLYLIEKYRRLSWFQQILSFISNFNQDLELFKQNELRTRNKWVKNFGSIATVFCEDLLSSSDFKRLNEYHSHTSPPNEDEEDENENSIANYRQDLVKVSQAIDNYMTQIKETDVSEPIIDLLSKTLFETKRFHIIYSNFKNNNNNSSNGNSISPEGSIALKSDDVVKGYKTRIKKLESLLHEFQYSDIGHWPQGVLNTHLKPFRGSATSINKKKFLGASVLLEPANISEVNIDSVSQANNHQIQELESNVDDLLHQLQLLKEENNRKSMQISEMGKKISDLEVEKTAYRETLTNLNQELARLTNEEQSHRTEIFTLNASFKKQLNDIISQDNEKIEKLTGDYDDVSKSRERLQMDLDESNKKHEQEVNLLKADIERLGKQIVTSEKSYAETNSSSMEKGEKFETIPLAEDPGRENQISAYTQTLQDRIFDIISTNIFILENIGLLLTFDNNNNIQIRRVKGLKKGTAQSNILDESTQMLDAHDNSLIKSPVFQKLKDEYELIKSVANGSEKDTQQSIFLGNITQLYDNKLYEVAVIRRFKDIETLAKKLTKENKIKRTLLERFQREKVTLRNFQIGDLALFLPTRENVNSVGSMSSSTSSLSSSFSSVDLSTPPPLDAMSIQSSPSVIHSNVINQASISGRDKNKLMRPWAAFTAFEESTRYFLKDEKGLTKGKEWFVGRIVTLEHFVADSPSNNPFRLPKGSVWFQVTAVVVSYQGV
For the molecule B1, the binding result (with Ino80-K929R-FLAG; in assay [1]) was “binds” in each case.
